# Source: patent US20080070238
# Target: DNase I (UniProt P00639)
# Experiment: cleavage_in_vitro
# Conditions: 2'-F at all nucleotides; 100 mM NaOAc, 5 mM MgCl2, 37 C, 5 min
# DNase I, sequence (P00639 23-282): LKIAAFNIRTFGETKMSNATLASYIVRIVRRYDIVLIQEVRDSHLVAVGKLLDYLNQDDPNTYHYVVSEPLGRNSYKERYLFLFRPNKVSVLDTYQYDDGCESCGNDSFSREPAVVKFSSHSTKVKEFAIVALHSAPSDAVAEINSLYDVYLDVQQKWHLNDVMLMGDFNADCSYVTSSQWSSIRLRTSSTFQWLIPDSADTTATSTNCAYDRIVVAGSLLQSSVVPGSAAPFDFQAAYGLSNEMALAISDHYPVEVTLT
sequence,measurement,value
NNNNNNNNNNNNNNNNNNNNNNNNNNNNNNNNNNNNNNNNCACGAGTGAAGTCTGAGCTCC [BSA-1A FNA library (primer removed)],activity (fold more stable than DNA),> 100
